Assays:
Assay in all cases: flow cytometry on cells
[1] = molecular target: MHV-A59 S protein R20A (mouse hepatitis virus A59)
[2] = molecular target: MHV-A59 S protein I22A (mouse hepatitis virus A59)
[3] = molecular target: MHV-A59 S protein Y15A/L160A (mouse hepatitis virus A59)

Substance: soluble receptor mCEACAM1a[1,4]
- reduction of receptor binding against WT [1]: 61%
- reduction of receptor binding against WT [2]: 83%
- reduction of receptor binding against WT [3]: > 65%

From PMC6798120
